Literature values as cited in publication PMC3505014.

Columns and labels:
NRXN1β ECD = NRXN1β ECD (UniProt P58400); experiment: surface plasmon resonance
Cbln1 = Cbln1 (UniProt P23435); experiment: surface plasmon resonance

UniProt P58400, sequence (P58400 51-396): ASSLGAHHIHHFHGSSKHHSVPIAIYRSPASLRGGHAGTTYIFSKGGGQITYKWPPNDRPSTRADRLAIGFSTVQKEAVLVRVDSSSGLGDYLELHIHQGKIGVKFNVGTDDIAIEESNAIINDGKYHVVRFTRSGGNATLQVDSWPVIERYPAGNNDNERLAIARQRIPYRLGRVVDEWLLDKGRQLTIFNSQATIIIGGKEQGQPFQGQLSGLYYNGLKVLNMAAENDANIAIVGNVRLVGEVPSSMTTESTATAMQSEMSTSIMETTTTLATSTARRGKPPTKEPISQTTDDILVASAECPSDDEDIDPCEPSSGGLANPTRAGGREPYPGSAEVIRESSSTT
Cbln1, sequence (P23435 22-193): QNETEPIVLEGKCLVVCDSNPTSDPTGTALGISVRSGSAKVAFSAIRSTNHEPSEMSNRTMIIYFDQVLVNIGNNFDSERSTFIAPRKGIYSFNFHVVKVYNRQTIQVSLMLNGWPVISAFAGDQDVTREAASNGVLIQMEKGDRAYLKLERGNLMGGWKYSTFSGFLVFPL

Row | Kd (NRXN1β ECD) [nM] | Kd (Cbln1) [nM] | Substance
1 | 0.17 |  | Cbln1 (from UniProt P23435)
2 |  | 16.5 | GluRδ2 (from UniProt O43424)
